We go through 14 molecules from US20210324050A1 (VANDERBILT UNIVERSITY, published 2021).

T1: GII.4 Sydney 2012 virus-like particles (VLPs), based on strain AFV08795.1 (human norovirus GII.4 Sydney 2012, UniProt P54635 1-538)
T1 construct: also called GII.4 VLPs
T1 chain: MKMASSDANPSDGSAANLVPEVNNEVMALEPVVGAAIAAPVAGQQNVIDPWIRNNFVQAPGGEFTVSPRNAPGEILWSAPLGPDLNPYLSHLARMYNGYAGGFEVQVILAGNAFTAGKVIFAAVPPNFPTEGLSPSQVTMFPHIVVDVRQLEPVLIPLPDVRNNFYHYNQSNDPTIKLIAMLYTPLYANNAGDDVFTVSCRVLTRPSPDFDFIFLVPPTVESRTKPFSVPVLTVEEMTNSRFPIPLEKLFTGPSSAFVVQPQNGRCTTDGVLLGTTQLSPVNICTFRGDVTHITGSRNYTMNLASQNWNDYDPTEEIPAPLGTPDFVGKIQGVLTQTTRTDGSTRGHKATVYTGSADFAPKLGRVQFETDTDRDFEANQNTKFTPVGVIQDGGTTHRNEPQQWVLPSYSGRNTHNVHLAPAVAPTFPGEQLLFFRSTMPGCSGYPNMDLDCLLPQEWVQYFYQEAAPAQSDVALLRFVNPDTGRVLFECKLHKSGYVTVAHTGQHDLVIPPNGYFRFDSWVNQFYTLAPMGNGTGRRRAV

T2: GII.4 Houston 2002 (ABY27560.1) VLPs (human norovirus GII.4 Houston 2002, UniProt P54635 1-539)
T2 construct: also called GII.4 Houston 2002 antigen; GII.4 Houston VLPs
T2 chain: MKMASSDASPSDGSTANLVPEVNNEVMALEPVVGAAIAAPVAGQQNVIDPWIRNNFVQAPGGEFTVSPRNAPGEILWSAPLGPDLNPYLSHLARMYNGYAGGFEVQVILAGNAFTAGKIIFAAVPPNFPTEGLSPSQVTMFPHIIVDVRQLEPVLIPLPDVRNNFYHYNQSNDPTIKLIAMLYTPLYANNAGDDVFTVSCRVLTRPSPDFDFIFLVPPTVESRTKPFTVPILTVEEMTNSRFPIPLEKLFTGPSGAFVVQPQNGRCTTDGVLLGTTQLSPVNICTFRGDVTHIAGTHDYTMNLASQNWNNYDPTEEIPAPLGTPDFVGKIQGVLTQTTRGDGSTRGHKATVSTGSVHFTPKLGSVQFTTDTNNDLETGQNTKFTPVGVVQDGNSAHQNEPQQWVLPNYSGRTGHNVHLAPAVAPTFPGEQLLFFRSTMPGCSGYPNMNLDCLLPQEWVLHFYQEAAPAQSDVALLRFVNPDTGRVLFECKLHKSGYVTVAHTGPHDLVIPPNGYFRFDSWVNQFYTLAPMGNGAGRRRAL

B1: NORO-263 (antibody, V domains shown)
VH: QVQLVESGGGLVKPGGSLRLSCAASGFTLSDYYMSWIRQAPGKGLEWVAYISSSHTSTYYRDSVKGRFTISRDSAKKSLYLQMNSLRVEDTAIYYCARDWVGGRSAYSDHWGQGTLVTVSS
VL: SYELTQPPSVSVSPGQTARITCSGDALPRRPAFWYQQKSGQAPVLVMYDDSKRPSGIPERFSGSSSGTVATLTISGAQVEDEADYHCYSTDSSGKERVFGGGTKLTVL
B2: NORO-278 (antibody, V domains shown)
VH: QVQLVESGGGVVQPGRSLRLSCAASGFTFSSYGMHWVRQAPGKGLEWVAVISYDGSNKYYADSVKGRFTISRDNSKNTLYLQMNSLRAEDTAVYYCAKVTIIAAADLLDYWGQGTLVTVSS
VL: QSVLTQPPSVSGAPGQRVTISCTGSSSNIGAGYDVHWYQQLPGTAPKLLIYGNSNRPSGVPDRFSGSKSGTSASLAITGLQAEDEADYYCQSYDSSLSGPVVFGGGTKLTVL
B3: NORO-279A (antibody, V domains shown)
VH: QVQLVESGGGVVQPGRSLRLSCAASGFTFTKYGMHWVRQAPGKGLEWVAFIAYDGSVKYYGDSAKGRFAISRDNPKNTVYLQMNSLRAEDTAVYYCAKVEIHYYSNSLLGMDVWGQGTLVTVSS
VL: QSVLTQPPSASGTPGQRVTISCSGGNSNIGISYVYWYQHLPGTAPKLLISKNNLRPSGVPDRFSASKSGTSASLAISGLRSEDEAEYYCATLDINMTWVFGGGTKLTVL
B4: NORO-310A (antibody, V domains shown)
VH: EVQLVESGGGLVRPGESLRLSCVASGFSVSDNYMSWVRQAPGKGLQWVSVIYSGGTTFYTDSVKGRFTISRDKSKNTLFLQMNSLRAEDTAVYFCTRDPSQYYDSRGHYYQTFTPSFDSWGQGTLVTVSS
VL: DIQMTQSPSVMSASVGDRVTITCRASQDISDYLAWFQQKPGKVPKRLIYAASSLQNGVPSRFSGSGSGTEFTLTISSLQPEDFATYYCLQHDTYPLTFGGGTKVEIK
B5: NORO-123 (antibody, V domains shown)
VH: QVQLVESGGGVVQPGRSLRLSCSTSGFTFSQYPMHWVRQAPGKGLEWVALISYDGMNKYYADSVRGRFTISRDNSENTQYLQMNSLRGDDTAVYYCARVTGDCTGNRCSYWAYYYYGLDVWGQGTLVTVSS
VL: QSALTQPPSASGSPGQSVTISCTGTSSDVGGYKYVSWYQQHPGKAPKLMIYEVTRRPSGVPDRFSGSKSGNTAFLTVSGLQAEDEADYYCGSYAGSTTSGYVFGTGTKVIVL
B6: NORO-303 (antibody, V domains shown)
VH: QVQLVESGGGVVQPGRSLRLSCAASGFIFSSYAMHWVRQAPGKGLEWVAVMSYDGNNKYYADSVKGRFTISRDNSKNTLFLQMNSLRPEDTAVYYCARDCRVGWVFTYGMDVWGQGTLVTVSS
VL: QSALTQPPSASGSPGQSVTISCTGTSSDVGGYNYVSWYQQHPGKAPKLMMYEISKRPSGVPIRFSGSKSGNTASLTVSGLQAEDEADYYCSSYAGTYNCVVFGGGTKLTVL
B7: NORO-251A (antibody, V domains shown)
VH: QVQLVESGGGVVQPGRSLRLSCAASGFTFRSYGIHWVRQAPGKGLEWVALISYDGSSKYYADSVKGRFTISRDNSKNTLYLQMNSLRSEDTAVYYCAKVRLTSYSIGWFSFDYWGQGTLVTVSS
VL: QSVLTQPPSVSAAPGQKVTISCSGSSSNIANYYVSWYQQLPGRAPKLLIYDNNKRPSGIPDRISGSKSGTSATLGITGLQTGDEADYYCGTWDTSLSAWVFGGGTKLTVL
B8: NORO-256A (antibody, V domains shown)
VH: QVQLVESGGGVVQAGRSLRLSCAASGFTFRSYGMHWVRQAPGKGLEWVAIISYDGGSKYYADSVKGRFTISRDNSKNTLYLQMNSLRVEDTALYYCAKDFLRVYSYGWHSFDIWGLGTLVTVSS
VL: QSVLTQPPSVSAAPGQRVTISCSGSSSNIGTYYVSWYQHLPGTAPKLLIYDNDKRPSGIPDRFSASKSGTSATLDIAGLQTGDEADYYCGTWDLSLTAGWVFGGGTKLTVL
B9: NORO-273A (antibody, V domains shown)
VH: QVQLVQSGAEVKKPGASVKISCKASGYDFTSFPMHWVRLGPGQRLEWMGWISAANGNTKYSQKFQDRFTITRDTSASIVHMELSSLRSEDTAVYYCARGGYSSGLYRYSNYYYGMTVWGQGTLVTVSS
VL: DIVMTQTPLSLSVTPGQPASISCKSSESLLHNDRKTYLFWYLQKPGQPPQLLIFQVSNRFSGVPDRFSGSGSGTDFTLRISRVEAEDVGIYYCLQTTQLPLTFGGGTKVEIK
B10: NORO-315B (antibody, V domains shown)
VH: QVQLVESGGGLVKPGGSLRLSCVASGFTFSDYYMTWFRQTPGRGLEWLSYISAIGGYTEYADSVKSRFIISRDNGKKSLYLQMNSLRAEDSGVYYCAREDCHGTSCYSGDWGQGTLVTVSS
VL: B2 VL with G52H, S54T, S74Y, A76T, S95R, G99K, P100S, V101R, G104S
B11: NORO-327A (antibody, V domains shown)
VH: QVQLEVSGGGLVKPGGSLRLSCAASGFTFTDYYMSWIRQAPGKGLEWVAYISGIMSSTKYADSVKGRFTISRDNGKNSVYLQMNSLTAEDTAVYYCARERVEPPSAVTDFWGQGTLVTVSS
VL: B2 VL with P7S, S25T, L41F, Y51S, G52H, S54T, Y93F, S98R, P100S, V101R
B12: NORO-313.1 (antibody, V domains shown)
VH: QVQLVESGGGLVKPGGSLRLSCAASGFTFSDFYMSWIRQAPGKGLEWVGYISSIAGATNYADSVKGRFTISRDSSKRSLYLQMNSLRVEDTAVYYCARMGRLELERRPHYYYPLDVWGQGTLVTVSS
VL: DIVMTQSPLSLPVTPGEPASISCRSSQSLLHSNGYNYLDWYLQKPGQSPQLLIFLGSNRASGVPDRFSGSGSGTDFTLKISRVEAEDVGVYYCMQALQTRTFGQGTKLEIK
B13: NORO-296A (antibody, V domains shown)
VH: QVQLVESGGGLVKPGGSLRLSCAASGFTFSEYYMSWVRQAPGKALEWVSYITSSFSSTSYADSVKGRFVISRDNAKNSLYLQMNSLRVEDTAVYYCARYGAEYGSRSFYFLDWGQGTLVTVSS
VL: B2 VL with G15E, Q40V, T44I, G52D, S54N, N55K, S96R, G99S, P100N
B14: NORO-250B (antibody, V domains shown)
VH: QVQLVESGGGLVKPGGSLTLSCAASGFTFSDYYMNWIRQAPGKRLEWVSYISGIMSSTNYADSVKGRFTISRDTAKKSVYLQMNSLRAEDTAVYYCARATSQGATSYYFDSWGQGTLVTVSS
VL: QSVLTQPPSVSGAPGQRVTISCTGSSSNIGADYDVHWYQQLPGAAPRLLIYADINRPSGVPDRFSGSKSGTSASLAITGLQAEDEADYYCQSYDRSVSGSAVFGGGTKVTVL

Substitutions are numbered along the chain they refer to.

For the first experiment, the target named is T1, GII.4 Sydney 2012 virus-like particles …. As to the kind of experiment: indirect ELISA on coated GII.4 Sydney 2012 VLPs. (An ELISA detects its analyte on a solid surface through an enzyme-linked reagent.)
Take B1: the EC50 (in general, the midpoint of the concentration-response curve) is 0.6 µg/mL.

As to B2, the EC50 worked out at 4 µg/mL.

Molecule B3 gave an EC50 of 0.2 µg/mL.

For the molecule B4, the EC50 came to 6.2 µg/mL.

B5 displayed an EC50 of 5.4 µg/mL.

As to B6, a half-maximal effect (EC50) was put at 0.5 µg/mL.

For B7, a half-maximal effect (EC50) was put at 0.9 µg/mL.

B8 displayed an EC50 of 0.9 µg/mL.

In turn, B9 came in with a concentration giving a half-maximal response (EC50) of 0.2 µg/mL.

For B10, it took 0.7 µg/mL to reach a half-maximal effect (EC50). Compared with the last molecule, the EC50 is about 3.5-fold higher.

In the next experiment the target is GII.4 Sydney 2012 virus-like particles (VLPs), based on strain AFV08795.1 (human norovirus GII.4 Sydney 2012, UniProt P54635 1-538). The experiment is described as follows: indirect ELISA on coated GII.4 Sydney 2012 VLPs.
B11 showed a 50% effective concentration (EC50) of 0.6 µg/mL.

A further experiment deals with T2, GII.4 Houston 2002 (ABY27560.1) VLPs. As to the kind of experiment: ELISA on GII.4 Houston 2002 VLPs.
B12: the binding result is on record as “binds”.

Turning to B13, the binding result was “binds”.

Take B1: the binding result is given as “binds”.

For the molecule B2, the binding result is reported as “binds”.

For B3, the binding result is “binds”.

As for B4, the binding result is listed as “binds”.

Consider B5, for which the binding result is listed as “binds”.

As for B6, the binding result is recorded as “binds”.

As to B14, the binding result is on record as “binds”.

With B7, the binding result was “binds”.

B8: the binding result is given as “binds”.

Turning to B9, the binding result was “binds”.

In the case of B10, the binding result is reported as “binds”.
